Patent US20030229005A1

Legend:
Assay in all cases: cell-based or functional assay
[1] = target: human Collagenase-3 (human) (UniProt P45452)
[2] = target: human Gelatinase-A (human) (UniProt P08253)
stromelysin 1 = stromelysin 1 (UniProt P08254)
Sequence of stromelysin 1 (P08254 100-477 limits assumed): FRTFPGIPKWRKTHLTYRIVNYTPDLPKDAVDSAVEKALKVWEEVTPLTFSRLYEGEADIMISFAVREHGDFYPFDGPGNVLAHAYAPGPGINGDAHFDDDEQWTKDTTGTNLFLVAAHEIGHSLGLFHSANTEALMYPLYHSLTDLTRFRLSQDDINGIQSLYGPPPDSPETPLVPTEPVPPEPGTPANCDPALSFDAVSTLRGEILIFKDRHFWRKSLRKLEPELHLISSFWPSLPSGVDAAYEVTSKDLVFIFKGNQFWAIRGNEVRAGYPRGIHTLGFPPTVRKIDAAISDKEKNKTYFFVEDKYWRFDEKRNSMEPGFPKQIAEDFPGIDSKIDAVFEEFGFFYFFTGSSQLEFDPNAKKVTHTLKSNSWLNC

Sequence of human Gelatinase-A (human) (P08253 110-660 limits assumed): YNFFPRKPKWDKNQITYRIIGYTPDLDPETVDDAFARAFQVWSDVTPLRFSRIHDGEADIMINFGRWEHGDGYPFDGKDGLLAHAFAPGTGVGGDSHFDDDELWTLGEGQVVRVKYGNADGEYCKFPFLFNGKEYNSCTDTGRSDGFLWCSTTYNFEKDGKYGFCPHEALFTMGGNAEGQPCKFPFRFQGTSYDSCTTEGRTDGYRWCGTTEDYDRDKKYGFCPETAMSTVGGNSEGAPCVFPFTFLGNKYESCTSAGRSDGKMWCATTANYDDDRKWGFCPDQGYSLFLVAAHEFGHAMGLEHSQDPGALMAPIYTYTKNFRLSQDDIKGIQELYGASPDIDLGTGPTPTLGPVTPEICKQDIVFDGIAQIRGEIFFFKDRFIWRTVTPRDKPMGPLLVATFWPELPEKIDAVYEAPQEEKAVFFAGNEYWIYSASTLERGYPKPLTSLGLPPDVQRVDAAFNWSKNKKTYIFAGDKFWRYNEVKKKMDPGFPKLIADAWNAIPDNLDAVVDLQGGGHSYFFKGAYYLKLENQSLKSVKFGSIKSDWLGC

Substance: bovine type II collagen (from UniProt P02459 182-1241)
- Average Percent Inhibition, 2.10-3.10 h, TypeIICOL 44 ug/ul [1]: -71%
- Average Percent Inhibition, 2.10-3.10 h, TypeIICOL .18 ug/ul [1]: -10%
- Average Percent Inhibition, 2.10-3.10 h, TypeIICOL .55 ug/ul [1]: -15%
- Average Percent Inhibition, 3.10-4.10 h, TypeIICOL 1.6 ug/ul [1]: -13%
- Average Percent Inhibition, 3.10-4.10 h, TypeIICOL 4.9 ug/ul [1]: -31%
- Average Percent Inhibition, 3.10-4.10 h, TypeIICOL 15 ug/ul [1]: -50%
- Average Percent Inhibition, 3.10-4.10 h, TypeIICOL 44 ug/ul [1]: -60%
- Average Percent Inhibition, 3.10-4.10 h, TypeIICOL .18 ug/ul [1]: -8%
- Average Percent Inhibition, 3.10-4.10 h, TypeIICOL .55 ug/ul [1]: -12%
- Average Percent Inhibition, 4.10-5.10 h, TypeIICOL 1.6 ug/ul [1]: -12%
- Average Percent Inhibition, 4.10-5.10 h, TypeIICOL 4.9 ug/ul [1]: -25%
- Average Percent Inhibition, 4.10-5.10 h, TypeIICOL 15 ug/ul [1]: -41%
- Average Percent Inhibition, 4.10-5.10 h, TypeIICOL 44 ug/ul [1]: -49%
- Average Percent Inhibition, 4.10-5.10 h, TypeIICOL .18 ug/ul [1]: -7%
- Average Percent Inhibition, 4.10-5.10 h, TypeIICOL .55 ug/ul [1]: -10%
- Average Percent Inhibition, 5.10-6.10 h, TypeIICOL 1.6 ug/ul [1]: -11%
- Average Percent Inhibition, 5.10-6.10 h, TypeIICOL 4.9 ug/ul [1]: -21%
- Average Percent Inhibition, 5.10-6.10 h, TypeIICOL 15 ug/ul [1]: -34%
- Average Percent Inhibition, 5.10-6.10 h, TypeIICOL 44 ug/ul [1]: -41%
- Average Percent Inhibition, 5.10-6.10 h, TypeIICOL .18 ug/ul [1]: -6%
- Average Percent Inhibition, 5.10-6.10 h, TypeIICOL .55 ug/ul [1]: -10%
- Average Percent Inhibition from 1.1 to 6.6 Hours, Type II Collagen 0.18 ug/ml [2]: 2%
- Average Percent Inhibition from 1.1 to 6.6 Hours, Type II Collagen 0.54 ug/ml [2]: 6%
- Average Percent Inhibition from 1.1 to 6.6 Hours, Type II Collagen 1.63 ug/ml [2]: -52%
- Average Percent Inhibition from 1.1 to 6.6 Hours, Type II Collagen 4.89 ug/ml [2]: 32%
- Average Percent Inhibition from 1.1 to 6.6 Hours, Type II Collagen 14.67 ug/ml [2]: 56%
- Average Percent Inhibition from 1.1 to 6.6 Hours, Type II Collagen 44.00 ug/ml [2]: 83%
- Average Percent Inhibition, 0.10-1.10 h, TypeIICOL 1.6 ug/ul [2]: -27%
- Average Percent Inhibition, 0.10-1.10 h, TypeIICOL 4.9 ug/ul [2]: 37%
- Average Percent Inhibition, 0.10-1.10 h, TypeIICOL 15 ug/ul [2]: 56%
- Average Percent Inhibition, 0.10-1.10 h, TypeIICOL 44 ug/ul [2]: 58%
- Average Percent Inhibition, 0.10-1.10 h, TypeIICOL .18 ug/ul [2]: 3%
- Average Percent Inhibition, 0.10-1.10 h, TypeIICOL .55 ug/ul [2]: 2%
- Average Percent Inhibition, 1.10-2.10 h, TypeIICOL 1.6 ug/ul [2]: 4%
- Average Percent Inhibition, 1.10-2.10 h, TypeIICOL 4.9 ug/ul [2]: 43%
- Average Percent Inhibition, 1.10-2.10 h, TypeIICOL 15 ug/ul [2]: 64%
- Average Percent Inhibition, 1.10-2.10 h, TypeIICOL 44 ug/ul [2]: 78%
- Average Percent Inhibition, 1.10-2.10 h, TypeIICOL .18 ug/ul [2]: 9%
- Average Percent Inhibition, 1.10-2.10 h, TypeIICOL .55 ug/ul [2]: 11%
- Average Percent Inhibition, 2.10-3.10 h, TypeIICOL 1.6 ug/ul [2]: -11%
- Average Percent Inhibition, 2.10-3.10 h, TypeIICOL 4.9 ug/ul [2]: 46%
- Average Percent Inhibition, 2.10-3.10 h, TypeIICOL 15 ug/ul [2]: 70%
- Average Percent Inhibition, 2.10-3.10 h, TypeIICOL 44 ug/ul [2]: 86%
- Average Percent Inhibition, 2.10-3.10 h, TypeIICOL .18 ug/ul [2]: 7%
- Average Percent Inhibition, 2.10-3.10 h, TypeIICOL .55 ug/ul [2]: 12%
- Average Percent Inhibition, 3.10-4.10 h, TypeIICOL 1.6 ug/ul [2]: -37%
- Average Percent Inhibition, 3.10-4.10 h, TypeIICOL 4.9 ug/ul [2]: 37%
- Average Percent Inhibition, 3.10-4.10 h, TypeIICOL 15 ug/ul [2]: 64%
- Average Percent Inhibition, 3.10-4.10 h, TypeIICOL 44 ug/ul [2]: 87%
- Average Percent Inhibition, 3.10-4.10 h, TypeIICOL .18 ug/ul [2]: 3%
- Average Percent Inhibition, 3.10-4.10 h, TypeIICOL .55 ug/ul [2]: 8%
- Average Percent Inhibition, 4.10-5.10 h, TypeIICOL 1.6 ug/ul [2]: -68%
- Average Percent Inhibition, 4.10-5.10 h, TypeIICOL 4.9 ug/ul [2]: 27%
- Average Percent Inhibition, 4.10-5.10 h, TypeIICOL 15 ug/ul [2]: 53%
- Average Percent Inhibition, 4.10-5.10 h, TypeIICOL 44 ug/ul [2]: 85%
- Average Percent Inhibition, 4.10-5.10 h, TypeIICOL .18 ug/ul [2]: 0%
- Average Percent Inhibition, 4.10-5.10 h, TypeIICOL .55 ug/ul [2]: 4%
- Average Percent Inhibition, 5.10-6.10 h, TypeIICOL 1.6 ug/ul [2]: -104%
- Average Percent Inhibition, 5.10-6.10 h, TypeIICOL 4.9 ug/ul [2]: 19%
- Average Percent Inhibition, 5.10-6.10 h, TypeIICOL 15 ug/ul [2]: 41%
- Average Percent Inhibition, 5.10-6.10 h, TypeIICOL 44 ug/ul [2]: 82%
- Average Percent Inhibition, 5.10-6.10 h, TypeIICOL .18 ug/ul [2]: -3%
- Average Percent Inhibition, 5.10-6.10 h, TypeIICOL .55 ug/ul [2]: -1%
- Average Percent Inhibition from 1.1 to 6.6 Hours, Type II Collagen 0.18 ug/ml (stromelysin 1): 15%
- Average Percent Inhibition from 1.1 to 6.6 Hours, Type II Collagen 0.54 ug/ml (stromelysin 1): 13%
- Average Percent Inhibition from 1.1 to 6.6 Hours, Type II Collagen 1.63 ug/ml (stromelysin 1): 19%
- Average Percent Inhibition from 1.1 to 6.6 Hours, Type II Collagen 4.89 ug/ml (stromelysin 1): 12%
- Average Percent Inhibition from 1.1 to 6.6 Hours, Type II Collagen 14.67 ug/ml (stromelysin 1): 18%
- Average Percent Inhibition from 1.1 to 6.6 Hours, Type II Collagen 44.00 ug/ml (stromelysin 1): 19%
- Average Percent Inhibition, 0.10-1.10 h, TypeIICOL 1.6 ug/ul (stromelysin 1): -10%
- Average Percent Inhibition, 0.10-1.10 h, TypeIICOL 4.9 ug/ul (stromelysin 1): 50%
- Average Percent Inhibition, 0.10-1.10 h, TypeIICOL 15 ug/ul (stromelysin 1): 57%
- Average Percent Inhibition, 0.10-1.10 h, TypeIICOL 44 ug/ul (stromelysin 1): 62%
- Average Percent Inhibition, 0.10-1.10 h, TypeIICOL .18 ug/ul (stromelysin 1): 22%
- Average Percent Inhibition, 0.10-1.10 h, TypeIICOL .55 ug/ul (stromelysin 1): 43%
- Average Percent Inhibition, 1.10-2.10 h, TypeIICOL 1.6 ug/ul (stromelysin 1): 24%
- Average Percent Inhibition, 1.10-2.10 h, TypeIICOL 4.9 ug/ul (stromelysin 1): 23%
- Average Percent Inhibition, 1.10-2.10 h, TypeIICOL 15 ug/ul (stromelysin 1): 28%
- Average Percent Inhibition, 1.10-2.10 h, TypeIICOL 44 ug/ul (stromelysin 1): 32%
- Average Percent Inhibition, 1.10-2.10 h, TypeIICOL .18 ug/ul (stromelysin 1): 22%
- Average Percent Inhibition, 1.10-2.10 h, TypeIICOL .55 ug/ul (stromelysin 1): 26%
- Average Percent Inhibition, 2.10-3.10 h, TypeIICOL 1.6 ug/ul (stromelysin 1): 22%
- Average Percent Inhibition, 2.10-3.10 h, TypeIICOL 4.9 ug/ul (stromelysin 1): 11%
- Average Percent Inhibition, 2.10-3.10 h, TypeIICOL 15 ug/ul (stromelysin 1): 18%
- Average Percent Inhibition, 2.10-3.10 h, TypeIICOL 44 ug/ul (stromelysin 1): 18%
- Average Percent Inhibition, 2.10-3.10 h, TypeIICOL .18 ug/ul (stromelysin 1): 15%
- Average Percent Inhibition, 2.10-3.10 h, TypeIICOL .55 ug/ul (stromelysin 1): 14%
- Average Percent Inhibition, 3.10-4.10 h, TypeIICOL 1.6 ug/ul (stromelysin 1): 18%
- Average Percent Inhibition, 3.10-4.10 h, TypeIICOL 4.9 ug/ul (stromelysin 1): 8%
- Average Percent Inhibition, 3.10-4.10 h, TypeIICOL 15 ug/ul (stromelysin 1): 14%
- Average Percent Inhibition, 3.10-4.10 h, TypeIICOL 44 ug/ul (stromelysin 1): 14%
- Average Percent Inhibition, 3.10-4.10 h, TypeIICOL .18 ug/ul (stromelysin 1): 12%
- Average Percent Inhibition, 3.10-4.10 h, TypeIICOL .55 ug/ul (stromelysin 1): 10%
- Average Percent Inhibition, 4.10-5.10 h, TypeIICOL 1.6 ug/ul (stromelysin 1): 17%
- Average Percent Inhibition, 4.10-5.10 h, TypeIICOL 4.9 ug/ul (stromelysin 1): 8%
- Average Percent Inhibition, 4.10-5.10 h, TypeIICOL 15 ug/ul (stromelysin 1): 13%
- Average Percent Inhibition, 4.10-5.10 h, TypeIICOL 44 ug/ul (stromelysin 1): 14%
- Average Percent Inhibition, 4.10-5.10 h, TypeIICOL .18 ug/ul (stromelysin 1): 12%
- Average Percent Inhibition, 4.10-5.10 h, TypeIICOL .55 ug/ul (stromelysin 1): 8%
- Average Percent Inhibition, 5.10-6.10 h, TypeIICOL 1.6 ug/ul (stromelysin 1): 16%
- Average Percent Inhibition, 5.10-6.10 h, TypeIICOL 4.9 ug/ul (stromelysin 1): 8%
- Average Percent Inhibition, 5.10-6.10 h, TypeIICOL 15 ug/ul (stromelysin 1): 14%
- Average Percent Inhibition, 5.10-6.10 h, TypeIICOL 44 ug/ul (stromelysin 1): 14%
- Average Percent Inhibition, 5.10-6.10 h, TypeIICOL .18 ug/ul (stromelysin 1): 12%
- Average Percent Inhibition, 5.10-6.10 h, TypeIICOL .55 ug/ul (stromelysin 1): 8%
